Experiments:
[1] = test system: S. pneumoniae R800; assay: In vitro antimicrobial activity, MIC by broth micro-dilution; format: cell-based
Method in brief: (§1)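 CLSI broth micro-dilution MIC against two-fold serial compound dilutions. Inoculum came from colonies grown 24 h at 35° C. or 28° C., suspended in cation-adjusted Mueller Hinton broth at 1*10^7 CFU/ml, of which 5 μl was added per 100 μl well. LepB(P84L) is a proline-mutant SPase strain with heightened arylomycin susceptibility.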

[2] = test system: S. aureus NCTC-8325 SpsB(P295); assay: as above; format: cell-based; conditions: S. aureus NCTC-8325 SpsB(P295)
[3] = test system: S. epidermidis RP62A; assay: as above; format: cell-based; conditions: S. epidermidis RP62A
[4] = test system: C. glutamicum DSM 44475; assay: as above; format: cell-based
[5] = test system: S. agalactiae COH-1; assay: as above; format: cell-based; conditions: S. agalactiae COH-1
[6] = test system: S. agalactiae ATCC 13813; assay: as above; format: cell-based
[7] = test system: P. aeruginosa PA01; assay: as above; format: cell-based
Method in brief: as §1

[8] = test system: E. coli MIG1655; assay: as above; format: cell-based; conditions: E. coli MIG1655
Method in brief: as §1

[9] = test system: P. aeruginosa PA01 LepB(P84L); assay: as above; format: cell-based; conditions: P. aeruginosa PA01 LepB(P84L)
Method in brief: as §1

[10] = test system: S. pyogenes ATCC 19615; assay: as above; format: cell-based
[11] = test system: S. epidermidis RP62A SpsIB(S29P); assay: as above; format: cell-based; conditions: S. epidermidis RP62A SpsIB(S29P)
[12] = test system: E. coli MIG1655 LepB(P84L); assay: as above; format: cell-based; conditions: E. coli MIG1655 LepB(P84L)
Method in brief: as §1

[13] = test system: S. epidermidis ATCC 12228; assay: as above; format: cell-based
[14] = test system: R. equi DSM 6939; assay: as above; format: cell-based
Method in brief: as §1

[15] = test system: S. pneumoniae D39; assay: as above; format: cell-based; conditions: S. pneumoniae D39
[16] = test system: S. pyogenes M15448; assay: as above; format: cell-based; conditions: S. pyogenes M15448
Method in brief: as §1

[17] = test system: S. aureus ATCC 29213; assay: as above; format: cell-based
[18] = test system: S. epidermidis RP62A SpsIB(S31P); assay: as above; format: cell-based; conditions: S. epidermidis RP62A SpsIB(S31P)
[19] = biological target: Full length His-tagged S. aureus SPase (S. aureus) (UniProt P0A070); assay: fluorescence binding titration; compound conc. 62.5 (unit inferred)
[20] = biological target: Full length His-tagged E. coli SPase (E. coli) (UniProt P00803); assay: fluorescence binding titration; compound conc. 3.E+01 (unit inferred)
Full length His-tagged E. coli SPase (E. coli), sequence (P00803 whole entry): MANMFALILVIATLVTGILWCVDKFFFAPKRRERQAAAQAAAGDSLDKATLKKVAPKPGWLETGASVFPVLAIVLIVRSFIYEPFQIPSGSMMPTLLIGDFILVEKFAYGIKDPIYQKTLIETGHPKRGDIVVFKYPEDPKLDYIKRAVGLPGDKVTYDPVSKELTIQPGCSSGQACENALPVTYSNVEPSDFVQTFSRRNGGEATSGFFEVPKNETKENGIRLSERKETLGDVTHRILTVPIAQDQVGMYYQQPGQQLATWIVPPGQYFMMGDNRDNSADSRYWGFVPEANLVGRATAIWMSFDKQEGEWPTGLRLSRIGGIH

[21] = biological target: Full length His-tagged S. aureus SPase (S. aureus) (UniProt P0A070); assay: fluorescence binding titration; compound conc. 8000 (unit inferred)
[22] = biological target: Full length His-tagged E. coli SPase (E. coli) (UniProt P00803); assay: fluorescence binding titration; compound conc. 6.E+01 (unit inferred)
[23] = biological target: Full length His-tagged E. coli SPase (E. coli) (UniProt P00803); assay: fluorescence binding titration; compound conc. 3.E+02 (unit inferred)
[24] = biological target: Full length His-tagged S. aureus SPase (S. aureus) (UniProt P0A070); assay: fluorescence binding titration; compound conc. 2000 (unit inferred)
[25] = biological target: Full length His-tagged S. aureus SPase (S. aureus) (UniProt P0A070); assay: fluorescence binding titration; compound conc. 4000 (unit inferred)
[26] = biological target: Full length His-tagged S. aureus SPase (S. aureus) (UniProt P0A070); assay: fluorescence binding titration; compound conc. 125 (unit inferred)
[27] = biological target: Full length His-tagged S. aureus SPase (S. aureus) (UniProt P0A070); assay: fluorescence binding titration; compound conc. 15.625 (unit inferred)
[28] = biological target: Full length His-tagged E. coli SPase (E. coli) (UniProt P00803); assay: fluorescence binding titration; compound conc. 1.E+03 (unit inferred)
[29] = biological target: Full length His-tagged E. coli SPase (E. coli) (UniProt P00803); assay: fluorescence binding titration; compound conc. 2.E+03 (unit inferred)
[30] = biological target: Full length His-tagged E. coli SPase (E. coli) (UniProt P00803); assay: fluorescence binding titration; compound conc. 2.E+01 (unit inferred)
[31] = biological target: Full length His-tagged S. aureus SPase (S. aureus) (UniProt P0A070); assay: fluorescence binding titration; compound conc. 31.25 (unit inferred)
[32] = biological target: Full length His-tagged E. coli SPase (E. coli) (UniProt P00803); assay: fluorescence binding titration; compound conc. 1.E+02 (unit inferred)
[33] = biological target: Full length His-tagged S. aureus SPase (S. aureus) (UniProt P0A070); assay: fluorescence binding titration; compound conc. 250 (unit inferred)
[34] = biological target: Full length His-tagged S. aureus SPase (S. aureus) (UniProt P0A070); assay: fluorescence binding titration; compound conc. 500 (unit inferred)
[35] = biological target: Full length His-tagged E. coli SPase (E. coli) (UniProt P00803); assay: fluorescence binding titration; compound conc. 0.E+00 (unit inferred)
[36] = biological target: Full length His-tagged E. coli SPase (E. coli) (UniProt P00803); assay: fluorescence binding titration; compound conc. 4.E+03 (unit inferred)
[37] = biological target: Full length His-tagged E. coli SPase (E. coli) (UniProt P00803); assay: fluorescence binding titration; compound conc. 5.E+02 (unit inferred)
[38] = biological target: Full length His-tagged S. aureus SPase (S. aureus) (UniProt P0A070); assay: fluorescence binding titration; compound conc. 1000 (unit inferred)
[39] = biological target: Full length His-tagged E. coli SPase (E. coli) (UniProt P00803); assay: fluorescence binding titration; compound conc. 8.E+00 (unit inferred)

CCCCCCCCCCCCCCCC(=O)N[C@H](CC(N)=O)C(=O)N[C@H](C)C(=O)NCC(=O)N(C)[C@@H]1C(=O)N[C@@H](C)C(=O)N[C@H](C(=O)O)Cc2ccc(O)c(c2)-c2cc1ccc2O [Compound 34] was tested, and the MIC [1] was >64 µg/mL, the MIC [2] was >64 µg/mL and the MIC [3] was >64 µg/mL. The MIC [4] was >64 µg/mL, the MIC [5] was >64 µg/mL and the MIC [6] was >64 µg/mL. For the same compound, the MIC [7] was >64 µg/mL, the MIC [8] was >64 µg/mL and the MIC [9] was >64 µg/mL. The MIC [10] was >64 µg/mL, the MIC [11] was >64 µg/mL and the MIC [12] was >64 µg/mL. The MIC [13] was >64 µg/mL, the MIC [14] was >64 µg/mL and the MIC [15] was >64 µg/mL. The MIC [16] was >64 µg/mL, the MIC [17] was >64 µg/mL and the MIC [18] was >64 µg/mL.

Compound 1 (arylomycin C16) (peptide) was tested, and the % Comp calc [19] was 7.4%, the % Comp obs [19] was 6.4% and the % Comp calc [20] was 31%. For the same compound, the % Comp obs [20] was 32%, the % Comp calc [21] was 93.6% and the % Comp obs [21] was 87.8%. The % Comp calc [22] was 51%, the % Comp obs [22] was 53% and the % Comp calc [23] was 85%. For the same compound, the % Comp obs [23] was 81%, the % Comp calc [24] was 77.1% and the % Comp obs [24] was 86.1%. It also gave a % Comp calc [25] of 87.6%, a % Comp obs [25] of 87.3% and a % Comp calc [26] of 14%. The % Comp obs [26] was 13.7%, the % Comp calc [27] was 1.9% and the % Comp obs [27] was 1.7%. It also gave a % Comp calc [28] of 96%, a % Comp obs [28] of 98% and a % Comp calc [29] of 98%. For the same compound, the % Comp obs [29] was 102%, the % Comp calc [30] was 17% and the % Comp obs [30] was 16%. The % Comp calc [31] was 3.8%, the % Comp obs [31] was 4.9% and the % Comp calc [32] was 71%. It also gave a % Comp obs [32] of 69%, a % Comp calc [33] of 25.4% and a % Comp obs [33] of 25.6%. The % Comp calc [34] was 42%, the % Comp obs [34] was 38.6% and the % Comp calc [35] was 0%. It also gave a % Comp obs [35] of -1%, a % Comp calc [36] of 99% and a % Comp obs [36] of 95%. The % Comp calc [37] was 92%, the % Comp obs [37] was 92% and the % Comp calc [38] was 61.1%. The % Comp obs [38] was 59.1%, the % Comp calc [39] was 9% and the % Comp obs [39] was 10%.
